Measured values taken from paper PMC4470507.

Tests used:
[1] = target: PfCCT MΔK^WT, second catalytic domain construct of Plasmodium falciparum CTP:phosphocholine cytidylyltransferase (528–795, Δ720–737) (Plasmodium falciparum); assay: native MS; native electrospray, QTOF, positive ion mode; 5 mM NH4HCO3 pH 7.2; gel filtered protein at 0.4 μM monomer concentration; source temperature 80°C; dimer to monomers; 3 samples from different expressions
[2] = target: PfCCT MΔK^R681H, R681H point mutant of the second catalytic domain construct of Plasmodium falciparum CTP:phosphocholine cytidylyltransferase (528–795, Δ720–737) (Plasmodium falciparum); assay: as above

Substance: PfCCT MΔK^WT, second catalytic domain construct of Plasmodium falciparum CTP:phosphocholine cytidylyltransferase (528–795, Δ720–737) (domain or fragment)
- stoichiometry N [1]: 2

Substance: PfCCT MΔK^R681H, R681H point mutant of the second catalytic domain construct of Plasmodium falciparum CTP:phosphocholine cytidylyltransferase (528–795, Δ720–737) (domain or fragment)
- fold decrease of the dimer:monomer abundance ratio against PfCCT MΔK^WT [2]: 20 times lower
